{"source": "paper PMC4701952", "about": "“Evolution of the Plant Reproduction Master Regulators LFY and the MADS Transcription Factors: The Role of Protein Structure in the Evolutionary Development of the Flower” (Frontiers in Plant Science, 2015)", "proteins": {"B1": {"name": "SEP3^L115R (natural protein, A. thaliana, UniProt O22456 1-251, looked up)", "chain": "MGRGRVELKRIENKINRQVTFAKRRNGLLKKAYELSVLCDAEVALIIFSNRGKLYEFCSSSSMLRTLERYQKCNYGAPEPNVPSREALAVELSSQQEYLKLKERYDALQRTQRNRLGEDLGPLSTKELESLERQLDSSLKQIRALRTQFMLDQLNDLQSKERMLTETNKTLRLRLADGYQMPLQLNPNQEEVDHYGRHHHQQQQHSQAFFQPLECEPILQIGYQGQQDGMGAGPSVNNYMLGWLPYDTNSI", "notes": "also called dimerisation-interface mutant; source: in vitro translated (pSPUTK, Promega SP6 High Yield Expression System), used without further purification"}, "B2": {"name": "SEP3^L171A (natural protein, A. thaliana, UniProt O22456 1-251, looked up)", "chain": "B1 chain with R115L, L171A", "notes": "also called tetramerisation interface mutant; source: in vitro translated (pSPUTK, Promega SP6 High Yield Expression System), used without further purification"}, "B3": {"name": "SEP3^ΔC (domain or fragment, A. thaliana)", "chain": "MGRGRVELKRIENKINRQVTFAKRRNGLLKKAYELSVLCDAEVALIIFSNRGKLYEFCSSSSMLRTLERYQKCNYGAPEPNVPSREALAVELSSQQEYLKLKERYDALQRTQRNLLGEDLGPLSTKELESLERQLDSSLKQIRALRTQFMLDQLNDLQSKLADG", "notes": "also called SEP3 truncation mutant; source: in vitro translated (pSPUTK, Promega SP6 High Yield Expression System), used without further purification"}, "B4": {"name": "SEP3^(75-178) construct (wild type) (domain or fragment, A. thaliana, UniProt O22456 75-178, looked up)", "chain": "YGAPEPNVPSREALAVELSSQQEYLKLKERYDALQRTQRNLLGEDLGPLSTKELESLERQLDSSLKQIRALRTQFMLDQLNDLQSKERMLTETNKTLRLRLADG", "notes": "cloned into pESPRIT002 (N-terminal 6x-His tag followed by a TEV site); also called SEP3 K-domain; oligomerisation domain of SEP3; source: E. coli BL21 (DE3) CodonPlusRIL, purified (Ni-Sepharose, TEV cleavage, Superdex 200 SEC); not shown: His6, N-terminal, cleaved"}, "B5": {"name": "SEP3^(75-178) Y98K (domain or fragment, A. thaliana, UniProt O22456 75-178, looked up)", "chain": "B4 chain with Y24K", "notes": "made with SEP3^(75-178) as the template; source: E. coli Rosetta2 (DE3) pLysS, purified (Ni-Sepharose, TEV cleavage, Superdex 200 SEC); not shown: His6, N-terminal, cleaved"}, "B6": {"name": "SEP3^(75-178) L135A (domain or fragment, A. thaliana, UniProt O22456 75-178, looked up)", "chain": "B4 chain with L61A", "notes": "as for B5"}, "B7": {"name": "SEP3^(75-178) L135M (domain or fragment, A. thaliana, UniProt O22456 75-178, looked up)", "chain": "B4 chain with L61M", "notes": "as for B5"}, "B8": {"name": "SEP3^(75-178) L115R (domain or fragment, A. thaliana, UniProt O22456 75-178, looked up)", "chain": "B4 chain with L41R", "notes": "as for B5"}, "B9": {"name": "SEP3^(75-178) L131V (domain or fragment, A. thaliana, UniProt O22456 75-178, looked up)", "chain": "B4 chain with L57V", "notes": "as for B5"}, "B10": {"name": "SEP3^(75-178) Y105N (domain or fragment, A. thaliana, UniProt O22456 75-178, looked up)", "chain": "B4 chain with Y31N", "notes": "as for B5"}}, "key": {"[1]": {"target": "the molecule itself", "assay": "native gel or EMSA; in vitro translated proteins (4 ul TnT mix, not purified) with 5-10 nM DY-682 labelled 121 bp SOC1 promoter DNA with two CArG boxes; complexes seen on DNA, assigned as putative dimer and tetramer"}, "[2]": {"target": "the molecule itself", "assay": "native gel or EMSA; in vitro translated proteins (not purified) with Cy5 labelled SOC1 promoter DNA in which CArG box 1 or CArG box 2 is mutated (one site left)"}, "[3]": {"target": "the molecule itself", "assay": "SEC; Superdex 200 10/300 GL in Buffer A (30 mM Tris pH 8.0, 300 mM NaCl, 5% glycerol, 2 mM TCEP); oligomeric state against the wild type protein; self-association"}}, "note": "Residue numbers refer to the chain shown, from its start. “And” between values parts separate entries of the source, which are not always exact repeats. Equal values may be shown once.", "data": [{"protein": "B1", "values": [{"measurement": "stoichiometry N", "setting": "[1]", "result": 2}]}, {"protein": "B2", "values": [{"measurement": "stoichiometry N", "setting": "[2]", "result": 4}]}, {"protein": "B3", "values": [{"measurement": "stoichiometry N", "setting": "[1]", "result": 2}]}, {"protein": "B4", "values": [{"measurement": "stoichiometry N", "setting": "[3]", "result": "4 and 2"}]}, {"protein": "B5", "values": [{"measurement": "stoichiometry N", "setting": "[3]", "result": 2}]}, {"protein": "B6", "values": [{"measurement": "binding result", "setting": "[3]", "result": "binds"}]}, {"protein": "B7", "values": [{"measurement": "stoichiometry N", "setting": "[3]", "result": 2}]}, {"protein": "B8", "values": [{"measurement": "binding result", "setting": "[3]", "result": "binds"}]}, {"protein": "B9", "values": [{"measurement": "binding result", "setting": "[3]", "result": "binds"}]}, {"protein": "B10", "values": [{"measurement": "stoichiometry N", "setting": "[3]", "result": 4}]}]}
